# Measurements: patent US10689628B2, “Method of making variant LovD polypeptides” (THE REGENTS OF THE UNIVERSITY OF CALIFORNIA, priority 2009, dated 2020)
# Numbering of substitutions follows the chain as printed. In names and notes the source's numbering stands. Several values for one entry are separate records, joined by “and”; a condition that tells them apart may be missing. Equal values may be shown once. Entries after “also recorded” stand apart in the source; their conditions may differ.
# B1: wild type LovD: A. terreus LovD acyltransferase polypeptide, SEQ ID NO: 1 (protein, listed as Aspergillus terreus)
# chain: MGSIIDAAAAADPVVLMETAFRKAVKSRQIPGAVIMARDCSGNLNYTRCFGARTVRRDECNQLPPLQVDTPCRLASATKLLTTIMALQCMERGLVDLDETVDRLLPDLSAMPVLEGFDDAGNARLRERRGKITLRHLLTHTSGLSYVFLHPLLREYMAQGHLQSAEKFGIQSRLAPPAVNDPGAEWIYGANLDWAGKLVERATGLDLEQYLQENICAPLGITDMTFKLQQRPDMLARRADQTHRNSADGRLRYDDSVYFRADGEECFGGQGVFSGPGSYMKVLHSLLKRDGLLLQPQTVDLMFQPALEPRLEEQMNQHMDASPHINYGGPMPMVLRRSFGLGGIIALEDLDGENWRRKGSLTFGGGPNIVWQIDPKAGLCTLAFFQLEPWNDPVCRDLTRTFEHAIYAQYQQG
# B2: A2: LovD C49A mutant (protein, UniProt Q9Y7D1 1-413, looked up, variant C49A)
# Monacolin J acid …: B1 chain with C49A
# B3: A5: LovD C89A mutant (protein, UniProt Q9Y7D1 1-413, looked up, variant C89A)
# Monacolin J acid …: B1 chain with C89A
# B4: A1N3: LovD double mutant C40A/C60N, starting point (generation zero) of directed evolution (protein, UniProt Q9Y7D1 1-413, looked up, variant C40A C60N)
# Monacolin J acid …: B1 chain with C40A, C60N
# B5: A3: LovD C60A mutant (protein, UniProt Q9Y7D1 1-413, looked up, variant C60A)
# Monacolin J acid …: B1 chain with C60A
# B6: A9: LovD C395A mutant (protein, UniProt Q9Y7D1 1-413, looked up, variant C395A)
# Monacolin J acid …: B1 chain with C395A
# B7: A6: LovD C216A mutant (protein, UniProt Q9Y7D1 1-413, looked up, variant C216A)
# Monacolin J acid …: B1 chain with C216A
# B8: A4: LovD C72A mutant (protein, UniProt Q9Y7D1 1-413, looked up, variant C72A)
# Monacolin J acid …: B1 chain with C72A
# B9: A8: LovD C380A mutant (protein, UniProt Q9Y7D1 1-413, looked up, variant C380A)
# Monacolin J acid …: B1 chain with C380A
# B10: A1: LovD C40A mutant (protein, UniProt Q9Y7D1 1-413, looked up, variant C40A)
# Monacolin J acid …: B1 chain with C40A
# B11: A7: LovD C266A mutant (protein, UniProt Q9Y7D1 1-413, looked up, variant C266A)
# Monacolin J acid …: B1 chain with C266A
# What was measured:
# [1] = biological target: T1, LovD (Aspergillus terreus, UniProt Q9Y7D1); conditions: cited from earlier work; for substrate quality for LovD (in words): WO 2007/139871, acyl-CoA substrates; for apparent kcat: WO 2007/139871, acyl donor with LovD and monacolin J; for conversion / acylation of monacolin J with acyl-CoA: WO 2007/139871: 1 mM monacolin J, 4 mM acyl-CoA, 10 uM LovD, 10 hours
# T1 construct: made in house; host or cells: E. coli BL21(DE3)/pAW31
# [2] = biological target: T1, LovD; experiment: Initial velocities of thioester substrates with pure LovD; type: biochemical; conditions: 1 mM MJ, 4 mM thioester substrate, 10 uM pure LovD, 50 mM HEPES, pH 7.9
# [3] = Native gel / SDS-PAGE of LovD proteins (oligomer, insoluble protein); type: physicochemical; conditions: for native gel: oligomer / monomer / stability (in words): DTT fixed at 2 mM
# Experimental: FIG. 2. (a) SDS-PAGE gel LovD protein (WT) from E. coli BL21(DE3)/pAW31; (b) native gel of LovD protein (WT) and A1-A8 respectively, DTT was fixed at 2 mM for all samples.
# LovD protein was purified to homogeneity by one step Ni-NTA column (FIG. 2a). […] The disulfide bonds between the proteins are spurious for protein crystallization because the monomer and oligomer are different species (see, e.g. Nemoto et al., 2006; J Appl Physiol 100(5):1688-91). One of our purposes was to remove the intermolecular disulfide bonds. By replacing the cysteine residues with alanine, we hope the resultant LovD mutant can keep the acyl-transferase activity while breaking the intermolecular disulfide bonds. […] We reasoned that the solubility of LovD may be changed when the intermolecular disulfide bonds between wild type LovD was eliminated (see, e.g. Lindberg et al., M. 2004; Proc Natl Acad Sci USA 101(45):15893-8).
# We ran the native gel of all the mutant proteins together with the wild type LovD protein (FIG. 2b).
# [4] = tested on: MJ acid and DMB-S-MMP; experiment: Kinetic assay of LovD wild type and mutants towards MJ acid and DMB-S-MMP; type: biochemical
# Experimental: Dimethyl sulfoxide (DMSO) was added to a final concentration of 10% to facilitate the solubilization of DMB-S-MMP. To compare the turnover rate of all mutants and the wild type protein, the MJ acid concentration was set at 1 mM and the DMB-S-MMP was set at 2 mM, the protein concentration was fixed at 10 uM, after the reaction was performed at room temperature for 2 hours, the reaction was quenched by adding EA/2% TFA. The organic phase was dried and redissolved in ACN for HPLC analysis.
# The concentration of DMB-S-MMP was fixed at 2 mM and MJ acid concentration was varied from 0.25 mM to 2.0 mM. […] For the rest LovD mutant proteins, we only checked the conversion of one time point.
# To obtain KM values for MJA and kcat, the DMB-SMMP concentration was fixed at 2 mM, while the concentration of MJA was varied from 0.25 to 5 mM. To obtain KM values for DMB-SMMP and kcat, the MJA concentration was fixed at 2 mM, while the concentration of DMB-SMMP was varied from 0.5 to 5 mM. Dimethyl sulfoxide (DMSO) was added to a final concentration of 10% to facilitate the solubilization of DMB-SMMP. At different time points of the kinetic assay, an aliquot of the reaction mixture was removed, quenched with 1% TFA and extracted with EA containing 1% acetic acid. The organic phase was separated, dried, resolubilized by acetonitrile (ACN) and analyzed by a Beckman Gold HPLC using a reverse phase C18 column (Alltech Apollo 5μ, 150 mm×4.6 mm) and a linear gradient: 60% ACN in water (0.1% trifluoroacetic acid (TFA)) to 95% ACN in water (0.1% TFA) for 10 min, 1 mL/min. Conversion of MJA to SVA was measured by integration of the peaks at 238 nm.
# [5] = tested on: E. coli YT2; experiment: Whole-cell biocatalysis, MJ acid and DMB-S-MMP to simvastatin acid (Example 1); conditions: for time to convert 15 mM MJ acid into simvastatin acid: whole cell, culture concentrated 10 times, 18 mM DMB-S-MMP; for whole cell activity compared to the wild type (in words): 8 hours conversion, alanine scanning mutants
# Experimental: Whole cell biocatalytic activities based on the conversion from MJ acid and DMB-S-MMP (gray column) and soluble protein expression level comparison between the wild type LovD and the mutants (black column). For the whole cell activity, the LB culture was concentrated 10 times to mimic high density fermentation, 15 mM MJ acid and 18 mM DMB-S-MMP were used to compare the conversion. The conversion based on 8 hours was used to compare the whole cell activity between the wild type LovD and the mutants. The wild type LovD conversion was normalized to 100%, the data points are averaged values of two runs.
# The LovD wild type and all mutants were cultured side-by-side for comparison. A single colony of the freshly transformed strains was used to inoculate a 5 ml LB culture supplemented with 35 mg/L kan and grown overnight at 37° C. The next morning, 100 μl of the overnight culture (0.2%) was inoculated into 50 ml LB medium with Kan. When OD600 reached 0.4˜0.6, 0.1 mM IPTG was added to the culture and expression of LovD was performed at 20° C. for 16 hrs. To mimic the high density fermentation conditions, the cells were concentrated 10-fold before addition of substrates. A 14 ml aliquot of the culture was collected by centrifugation (4° C., 4000 g, 10 min). The cell pellet was gently resuspended in 1330 ml of the supernatant, followed by addition of 70 ml of a MJ acid stock solution (300 mM in water) to make final concentration 15 mM. The concentrated culture was then resuspended and separated into seven 200 μl samples, 1 μl of pure DMB-S-MMP was added to each sample (final concentration ˜20 mM). The cultures were then shaken at 300 rpm at room temperature. At each time point, a total extraction was performed by adding 10 μl of 20% SDS to completely lyse the cells, followed by liquid—liquid extraction with 500 μl EA/2% TFA. The organic phase was removed, evaporated, and redissolved in 500 μl ACN for HPLC analysis.
# We then tested the in vivo activity of the nine mutants in comparison to the wild type LovD. Both the mutants and the wild type LovD strains were grown in LB media, expressed and concentrated 10 times to mimic the high density fermentation after 16 hours expression at 20° C. Both MJ acid and DMB-S-MMP were added to final 15 mM and 18 mM respectively to start the reaction. At 8 hours, 100 μl sample culture was taken out to check the total conversion from MJ acid to simvastatin acid.
# [6] = tested on: E. coli YT2; experiment: Whole-cell biocatalysis activity of LovD G0 and directed-evolution mutants (SVA synthesis)
# Experimental: Wild type LovD and all mutants were cultured in parallel for comparison. A single colony of the freshly transformed YT2 competent cells was used to inoculate a 5 mL LB culture supplemented with 35 mg/L kanamycin. Following overnight growth at 37° C., 100 μl of the culture was inoculated into 50 mL LB medium supplemented with 35 mg/L kanamycin. When OD600 reached 0.4˜0.6, 0.1 mM IPTG was added to the cultures and expression of all LovD variants was performed at 25° C. for 16 hr. To mimic the high density fermentation conditions, the cells were then concentrated 10-fold before addition of substrates. A 10 ml aliquot of each culture was collected by centrifugation (4° C., 2,000 g, 10 min). The cell pellet was gently resuspended in 1 ml of the medium supernatant, followed by addition of 70 μl of MJA (300 mM stock) to a final concentration of 15 mM. The concentrated culture was then divided into seven 200 μl aliquots and 1 μl of pure DMB-SMMP was added to each sample to a final concentration of 20 mM. The small cultures were then shaken at 300 rpm at 25° C. At each time point, a complete extraction of one culture aliquot was performed by adding 10 μl of 20% SDS for cells lysis, followed by extraction with 500 μl ethyl acetate containing 1% trifluoroacetic acid TFA. The organic phase was removed, evaporated, and redissolved in 500 μl acetonitrile for HPLC analysis. The whole-cell activity was determined by fitting the linear regions of the conversion time course plot.
# Parent LovD G0 and all mutants were cultured in parallel for comparison. A single colony of the freshly transformed YT2 competent cells was used to inoculate a 5 mL LB culture supplemented with 35 mg/L kanamycin. Following overnight growth at 37° C., 100 μl of the culture was inoculated into 50 mL LB medium supplemented with 35 mg/L kanamycin. When OD600 reached 0.4˜0.6, 0.1 mM IPTG was added to the cultures and expression of all LovD variants was performed at 25° C. for 16 hr. To mimic the high density fermentation conditions, the cells were then concentrated 10-fold before addition of substrates. A 10 ml aliquot of each culture was collected by centrifugation (4° C., 2,000 g, 10 min). The cell pellet was gently resuspended in 1 ml of the medium supernatant, followed by addition of 70 μl of MJA (300 mM stock) to a final concentration of 15 mM. The concentrated culture was then divided into seven 200 μl aliquots and 1 μl of pure DMB-SMMP was added to each sample to a final concentration of 20 mM. The small cultures were then shaken at 300 rpm at 25° C. At each time point, a complete extraction of one culture aliquot was performed by adding 10 μl of 20% SDS for cells lysis, followed by extraction with 500 μl ethyl acetate containing 1% trifluoroacetic acid TFA. The organic phase was removed, evaporated, and redissolved in 500 μl acetonitrile for HPLC analysis. The whole-cell activity was determined by fitting the linear regions of the conversion time course plot.
# [7] = Soluble LovD protein expression level (Ni-NTA purification, Bradford assay); conditions: purified from 50 ml LB culture, Bradford
# Experimental: Each mutant was transformed into E. coli YT2 strain and selected by Kanamycin (Kan). The transformant was grown in 500 ml LB-Kan media at 37° C. to OD600 0.4˜0.6, then 0.1 mM IPTG was added to induce protein expression at 20° C. for 16 hours. Cells were collected by centrifugation, resuspended in 30 ml Buffer A (50 mM Tris-HCl, pH 8.0, 2 mM 2 mM EDTA), and lysed by sonication. Cell debris and insoluble proteins were removed by centrifugation (16,000 g, 4° C., 1 h). To the cleared lysate, 2 ml of Ni-NTA resin (Qiagen) was added. Each mutant was purified using a step gradient of buffer A with increasing concentration of imidazole. Pure (>95%) LovD proteins were eluted in buffer A containing 250 mM imidazole, and then buffer exchanged into buffer A without imidazole. Glycerol was added to a final concentration of 10%, the proteins were aliquoted, and flash frozen.
# All nine mutants and the wild type LovD proteins were purified at the same time and under the same conditions. The proteins were purified from 50 ml LB culture. LovD was eluted in the last fraction which contains 250 mM imidazole. The concentration of the last fraction was determined by Bradford Assay using BSA as the standard.
# Each expression plasmid encoding LovD mutant was transformed into E. coli BL21(DE3). The transformant was cultured in 50 mL LB medium containing 35 mg/L Kan at 37° C. to optical density (OD600) value of 0.4˜0.6. Protein expression was induced with 0.1 mM IPTG and the subsequent expression was performed at 25° C. for 16 h. Cells were collected by centrifugation (2,000 g, 4° C., 15 min), resuspended in 7 mL Buffer A (50 mM Tris-HCl, pH 8.0, 2 mM DTT, 2 mM EDTA), and lysed by sonication. Cell debris and insoluble proteins were removed by centrifugation (20,000 g, 4° C., 1 h). To the cleared cell lysate, 0.5 mL of Ni-NTA resin (Qiagen, Valencia, Calif.) was added to each sample. […] The protein concentrations were qualitatively assessed by SDS-PAGE and quantitatively determined by the Bradford protein assay using bovine serum albumin (BSA) as the standard.
# [8] = DMB-S-MMP fixed at 2 mM, MJ acid 0.25 mM to 2.0 mM
molecule,measurement,setting,value
CC(=O)CC(=O)SCCNC(=O)CCNC(=O)[C@H](O)C(C)(C)COP(=O)(O)OP(=O)(O)OC[C@H]1O[C@@H](n2cnc3c(N)ncnc32)[C@H](O)[C@@H]1OP(=O)(O)O [Acetoacetyl-CoA],substrate quality for LovD (in words),[1],excellent substrates
"CCOC(=O)CCSC(=O)C(C)(C)CC [DMB-S-EMP, dimethylbutyryl-S-ethyl mercaptopropionate]",Initial Velocity (ki),[2],0.70 min⁻¹
"CCC(C)(C)C(=O)SCCCC(=O)OC [DMB-S-MMB, dimethylbutyryl-S-methyl mercaptobutyrate]",Initial Velocity (ki),[2],0.78 min⁻¹
CCC(C)(C)C(=O)SCCC(=O)O [DMB-S-MPA],Initial Velocity (ki),[2],0.08 min⁻¹
"CCC(C)(C)C(=O)SCC(=O)OC [DMB-S-MTG, dimethylbutyryl-S-methyl thioglycolate]",Initial Velocity (ki),[2],0.03 min⁻¹
"CCC(C)(C)C(=O)SCCNC(C)=O [DMB-S-NAC, α-dimethylbutyryl-SNAC]",Initial Velocity (ki),[2],0.02 min⁻¹
"CCCC(=O)SCCNC(C)=O [SNAC, butyryl-SNAC]",apparent kcat,[1],0.0015 s⁻¹
CC(C)(COP(=O)(O)OP(=O)(O)OC[C@H]1O[C@@H](n2cnc3c(N)ncnc32)[C@H](O)[C@@H]1OP(=O)(O)O)[C@@H](O)C(=O)NCCC(=O)NCCSC(=O)c1ccccc1 [benzoyl-CoA],apparent kcat,[1],0.00267 s⁻¹
same,conversion / acylation of monacolin J with acyl-CoA,[1],~70%
CCCC(=O)SCCNC(=O)CCNC(=O)[C@H](O)C(C)(C)COP(=O)(O)OP(=O)(O)OC[C@H]1O[C@@H](n2cnc3c(N)ncnc32)[C@H](O)[C@@H]1OP(=O)(O)O [butyryl-CoA],substrate quality for LovD (in words),[1],optimal alkylacyl-CoA substrate
C/C=C/C(=O)SCCNC(=O)CCNC(=O)[C@H](O)C(C)(C)COP(=O)(O)OP(=O)(O)OC[C@H]1O[C@@H](n2cnc3c(N)ncnc32)[C@H](O)[C@@H]1OP(=O)(O)O [crotonyl-CoA],conversion / acylation of monacolin J with acyl-CoA,[1],6%
CC(C)(COP(=O)(O)OP(=O)(O)OC[C@H]1O[C@@H](n2cnc3c(N)ncnc32)[C@H](O)[C@@H]1OP(=O)(O)O)[C@@H](O)C(=O)NCCC(=O)NCCSC(=O)CC(=O)O [malonyl-CoA],substrate quality for LovD (in words),[1],inactive
CCCCCCCCCCCCCCCC(=O)SCCNC(=O)CCNC(=O)[C@H](O)C(C)(C)COP(=O)(O)OP(=O)(O)OC[C@H]1O[C@@H](n2cnc3c(N)ncnc32)[C@H](O)[C@@H]1OP(=O)(O)O [palmitoyl-CoA],substrate quality for LovD (in words),[1],inactive
CC[C@H](C)C(=O)SCCNC(C)=O [α-S-methylbutyryl-SNAC],apparent kcat,[1],~0.00067 s⁻¹
CC(O)CC(=O)SCCNC(=O)CCNC(=O)[C@H](O)C(C)(C)COP(=O)(O)OP(=O)(O)OC[C@H]1O[C@@H](n2cnc3c(N)ncnc32)[C@H](O)[C@@H]1OP(=O)(O)O (stereo partly drawn) [β-hydroxylbutyryl-CoA],substrate quality for LovD (in words),[1],excellent substrates
B1,fraction of LovD protein forming oligomer,"[3]; native gel, even at high DTT concentration",~20%
same,fraction of expressed LovD protein insoluble,[3]; overexpressed in E. coli,more than 50%
same,Km,[4]; [8],640 µM
same,kcat,[4]; [8],0.62 min⁻¹
same,kcat,"[4]; FIG. 1 legend, MJ acid and DMB-S-MMP to simvastatin",0.6 min'
same,time to convert 15 mM MJ acid into simvastatin acid,[5],12 h
B2,native gel: oligomer / monomer / stability (in words),[3],very similar to WT
B3,native gel: oligomer / monomer / stability (in words),[3],not very stable; also recorded: less proteins
B4,faster than the single mutant A1 and N3,[5]; whole cell time course,about 20%
same,time to convert 15 mM MJ acid into simvastatin acid,[5],~8 h
same,whole cell SVA production rate,[6]; 25° C.,~1.7 mM per hour
same,whole cell activity when expressed at 32° C. (in words),[6]; 32° C.,did not show any activity
same,whole-cell conversion rate,[6]; normalized to 1 in FIG. 13,1.7 mM/h
B5,native gel: oligomer / monomer / stability (in words),[3],almost all monomers; also recorded: eliminated most of the oligomer
same,Km,[4]; [8],660 µM
same,kcat,[4]; [8],0.64 min⁻¹
same,whole cell activity compared to the wild type (in words),[5],slightly higher activity
B6,native gel: oligomer / monomer / stability (in words),[3],no soluble proteins at all
same,whole cell activity compared to the wild type (in words),[5],no activity
B7,native gel: oligomer / monomer / stability (in words),[3],very similar to WT
B8,native gel: oligomer / monomer / stability (in words),[3],not very stable; also recorded: less proteins
B9,native gel: oligomer / monomer / stability (in words),[3],very similar to WT
B10,native gel: oligomer / monomer / stability (in words),[3],slightly more monomers; also recorded: slightly less oligomer
same,Km,[4]; [8],680 µM
same,kcat,[4]; [8],0.62 min⁻¹
same,whole cell activity higher than the wild type,"[5]; based on 8 hours conversion, wild type normalized to 100%",~25% and 31%
same,solubility more than the wild type,[7],28%
B11,native gel: oligomer / monomer / stability (in words),[3],not very stable; also recorded: less proteins
